Measurements published in US11633499B2, “Anti-TMEM-180 antibody, anticancer drug and cancer testing method” (NATIONAL CANCER CENTER JAPAN, priority 2016, dated 2023).
Residue numbers refer to the chain shown, from its start. Names may count otherwise.

T1: TMEM-180 (Homo sapiens, UniProt Q14CX5)
T1 construct: endogenous in cells; host or cells: DLD-1 colon cancer cell line (parent / wild type); culture supernatant exosomes in A20
T1 sequence (Q14CX5 1-517): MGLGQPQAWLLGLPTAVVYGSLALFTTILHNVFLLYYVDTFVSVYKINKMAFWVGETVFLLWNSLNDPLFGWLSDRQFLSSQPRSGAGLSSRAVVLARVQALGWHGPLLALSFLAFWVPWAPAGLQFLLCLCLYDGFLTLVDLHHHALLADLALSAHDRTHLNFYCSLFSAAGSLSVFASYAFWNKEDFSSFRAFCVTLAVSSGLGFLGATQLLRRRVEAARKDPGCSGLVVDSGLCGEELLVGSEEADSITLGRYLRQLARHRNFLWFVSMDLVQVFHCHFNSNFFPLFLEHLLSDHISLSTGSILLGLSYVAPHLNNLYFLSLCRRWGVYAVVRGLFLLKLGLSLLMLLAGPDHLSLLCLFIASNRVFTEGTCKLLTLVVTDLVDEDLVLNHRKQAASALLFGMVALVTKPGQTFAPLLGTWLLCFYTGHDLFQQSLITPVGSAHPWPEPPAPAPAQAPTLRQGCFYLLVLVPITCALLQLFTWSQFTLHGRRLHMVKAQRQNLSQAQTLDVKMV

B1: Variant 1: Fc-modified clone of 1361-5 with triple substitutions S239D/A330L/1332E in the Fc region (antibody)
heavy: EVQLVESGGGLVQPGRSLKLSCVASGFTFNNYWMTWIRQAPGKGLEWVASITNTGGSTAYPDSVKGRFTISRDYAKSTLYLQMNSLRSEDTATYYCTRAGYSSYPDYFDYWGQGVMLTVSSASTKGPSVFPLAPSSKSTSGGTAALGCLVKDYFPEPVTVSWNSGALTSGVHTFPAVLQSSGLYSLSSVVTVPSSSLGTQTYICNVNHKPSNTKVDKKVEPKSCDKTHTCPPCPAPELLGGPDVFLFPPKPKDTLMISRTPEVTCVVVDVSHEDPEVKFNWYVDGVEVHNAKTKPREEQYNSTYRVVSVLTVLHQDWLNGKEYKCKVSNKALPLPEEKTISKAKGQPREPQVYTLPPSRDELTKNQVSLTCLVKGFYPSDIAVEWESNGQPENNYKTTPPVLDSDGSFFLYSKLTVDKSRWQQGNVFSCSVMHEALHNHYTQKSLSLSPGK
light: MMAPVQLLGLLLLWLPAMRCNIQMTQSPSLLSASVGDRVTLSCKAGQNIYNYLAWYQQKLGEAPKLLIYNANSLQTGIPSRFSGSGSGTDFTLTISSLQPEDVATYFCQQYSSGWTFGGGTKLELKRTVAAPSVFIFPPSDEQLKSGTASVVCLLNNFYPREAKVQWKVDNALQSGNSQESVTEQDSKDSTYSLSSTLTLSKADYEKHKVYACEVTHQGLSSPVTKSFNRGEC
B2: Variant 2: Fc-modified clone of 1361-5 with triple substitutions S239D/1332E/E333A in the Fc region (antibody)
heavy: B1 heavy with L334A, E337A
light: B1 light
B3: clone 98: rat IgM anti-TMEM-180 monoclonal antibody; heavy chain variable region SEQ ID NO: 13, light chain variable region SEQ ID NO: 14 (antibody, V domains shown)
VH: MAVLVLLLCLVTFPTCVLSQVQLKESGPGLVQPSQTLSLTCTVSGFSLTRYNVHWVRQPTGKGLEWMGVIWTGGSTDYNSALKSRLSISRDTSKSQVFLKMNSLQTEDIATYYCARDLGYWGQGVMVTVSS
VL: MMSPAQFLFLLMLWIQETHSDIVMTQTPLSLSVAIGQSASISCKSSQSLKYRDGKTYLNWVFQSPGQSPKRLIYQVSKLDSGVPDRFSGTGSETDFTLKISRVEAEDLGVYYCCQGSYSPHTFGAGTKLELK

What was measured:
wild type DLD-1 cells = test: ADCC activity (51Cr release, TK176V effector cells), wild type DLD-1; format: cell-based, human; conditions: ET ratio 40; 4 hours; 0.064 to 1,000 ng/mL; FIGS. 20A to 20D
Protocol: Specifically, TK176V (a natural killer cell line stably expressing FcγRIII) was used as an effector cell, which was obtained from Chemicals Evaluation and Research Institute, Japan. The wild type DLD-1 cell line was used as a target cell.
T1 76V was cultured in RPM11640 containing 10 ng/mL IL-2 and 10% FBS. For passages, the medium was diluted with a fresh medium every 2 to 3 days. In the passage, the cells were detached by a trypsin treatment and then suspended in a fresh medium to be plated on a dish every 2 to 3 days.
The measurement of the ADCC activity was performed as described below.
First, the amount of 51Cr release was measured when only the target cells were cultured in medium as a negative control, which is referred to as “Spontaneous release measurement”. The amount of 51 Cr release was measured when the all target cells were damaged by adding 0.1% TRITON™ (surfactant) X-100, which is referred to as “Max release measurement.”
1) Adding DLD-1 WT labelled with 50 μCi of ^51Cr to a U-bottom, 96 well plate at 5,000 cells/50 μL/well.
2) Adding TK176V at 200,000 cells/50 μL/well (ET ratio: 40): A medium was added at 50 μL/well to the well for Spontaneous release measurement and the well for Max release measurement. […]

colon cancer cell lines = test: Flow cytometry (FACS) with anti-TMEM-180 IgM clones, colon cancer; format: binding; conditions: six types of colon cancers; FIG. 3
Protocol: (§1) Cancer cells targeted for measurement were cultured in medium and then added to a V-bottom 96-well plate (Corning Incorporated) to a concentration of 1×10^5 cells/well. The plate was centrifuged for 3 minutes at 440×g and 4° C. followed by removing the supernatant, adding antibody-producing hybridoma culture supernatant or antibody solution to the cell pellet at 50 μL/well and suspending therein. After allowing to react for 45 minutes on ice, the plate was washed three times with a mixture of 0.1% BSA, 2 mM EDTA and PBS at 200 μL/well. The supernatant was removed and secondary antibody was added to the cell pellet at 50 μL/well followed by suspending the cells therein. ALEXAFLUOR 647@ (fluorescent compound) goat anti-rat IgG (H-L) (Life Technologies Corporation) was used for the secondary antibody after diluting 400-fold with a mixture of 0.1% BSA, 2 mM EDTA and PBS. After allowing to react for 45 minutes on ice, the plate was washed three times with a mixture of 0.1% BSA, 2 mM EDTA and PBS at 200 μL/well. After removing the supernatant, 50 ng/mL of propidium iodide, 0.1% BSA, 2 mM EDTA and PBS were added to the cell pellet at 250 µL/well followed by suspending therein. The cells stained in this manner were measured using a flow cytometer such as the Guava easyCyte 8HT (Merck Millipore Corporation) followed by analysis of the resulting data using FlowJO (Tomy Digital Biology Co., Ltd.). FACS analysis was carried out using colon cancer, brain tumor and hematologic cancer.

brain tumor cell lines = test: Flow cytometry (FACS) with anti-TMEM-180 IgM clones, brain tumor; format: binding; conditions: four types of brain tumors; FIG. 3
Protocol: as §1

DLD-1 colon cancer cells = test: Fluorescent immunostaining of DLD-1 colon cancer cells; format: binding, human; conditions: fixed and permeabilized DLD-1; antibody concentrations of clones not aligned; FIG. 4
Protocol: DLD-1 cells were added to a 96-well plate (Corning Incorporated, CeIIBIND) to a concentration of 5×10^3 cells/well and subjected to cell staining after culturing for 2 days. The cells were subjected to fixation and permeation treatment in the manner indicated below. After washing the cell culturing plate twice with PBS at 200 μL/well, the washings were removed followed by the addition of 4% para-formaldehyde-phosphate buffer (Wako Pure Chemical Industries, Ltd.) containing 0.1% TRITON™ (surfactant) X-100 (Wako Pure Chemical Industries, Ltd.) at 100 µL/well while cooling with ice and fixing the cells for 10 minutes. After removing the fixation solution, the plate was washed once with PBS at 200 μL/well and once with a mixture of 1% FBS in PBS at 200 μL/well to obtain a cell-immobilized plate. The cells were stained in the manner indicated below. Namely, after removing medium from the non-immobilized cell culturing plate and removing washings from the cell-immobilized plate, […] hybridoma culture supernatant or diluted antibody solution was added at 50 μL/well. After allowing to react for 1 hour on ice, the plate was washed once with PBS at 200 μL/well and twice with a mixture of 1% FBS in PBS at 200 μL/well. After removing the washings, a mixture of 5 μg/mL ALEXAFLUOR 647@ (fluorescent compound) goat anti-rat IgG (H-L), 2 μg/mL Hoechst 33342 and 1% FBS/PBS was added at 50 μL/well. After allowing to react for 1 hour on ice, the plate was washed twice with PBS at 200 μL/well. PBS was then added at 50 μL/well followed by measuring with ArrayScan (Thermo Fisher Scientific Inc.).

TMEM-180 = biological target: T1, TMEM-180; test: FACS of DLD-1 parent line and TMEM-180 knockout line; format: binding
Protocol: The plate was centrifuged for 3 minutes at 440×g and 4° C. followed by removing the supernatant, adding antibody-producing hybridoma culture supernatant or antibody solution to the cell pellet at 50 μL/well and suspending therein. After allowing to react for 45 minutes on ice, the plate was washed three times with a mixture of 0.1% BSA, 2 mM EDTA and PBS at 200 μL/well. The supernatant was removed and secondary antibody was added to the cell pellet at 50 μL/well followed by suspending the cells therein. […] After allowing to react for 45 minutes on ice, the plate was washed three times with a mixture of 0.1% BSA, 2 mM EDTA and PBS at 200 μL/well. […] The cells stained in this manner were measured using a flow cytometer such as the Guava easyCyte 8HT (Merck Millipore Corporation) followed by analysis of the resulting data using FlowJO (Tomy Digital Biology Co., Ltd.). FACS analysis was carried out using colon cancer, brain tumor and hematologic cancer.
Flow cytometry was carried out in accordance with the procedure described in the above-mentioned section 3. […] The supernatant of a culture of hybridoma producing rat IgM antibody clone 365 was used as a negative control after similarly diluting to 1 μg/mL. […] A mixture of RPMI and 10% FBS was used to dilute each of the antibodies. Furthermore, antibody concentration in the hybridoma culture supernatant was measured by rat IgM-specific ELISA (Bethyl Laboratories).

[1] = test system: human colon cancer formalin-fixed section; test: Immunostaining of formalin-fixed section of human colon cancer surgical specimens; format: binding; conditions: 1 μg/mL, FIG. 6
Protocol: Anti-TMEM-180 IgM rat antibody (clone 98) was reacted with a colon cancer formalin-fixed section at 1 μg/mL. HRP-labeled anti-rat antibody was used as secondary antibody and the section was stained with DAB followed by post-staining with hematoxylin.

colon cancer DLD-1 cells = test: Cytocidal effect of anti-TMEM-180 IgM antibody (WST-8), DLD-1; format: cell-based, human; conditions: hybridoma culture supernatant adjusted to 80, 20 or 5 μg/mL, 96 hours, FIGS. 7 and 8
Protocol: (§2) DLD-1 cells and K562 cells were added to a 96-well plate at 1×10^3 cells/100 μL/well followed by culturing for 24 hours. 50 μL of medium were removed from each well of the 96-well plate followed by the addition of rat IgM antibody clone 98-producing hybridoma culture supernatant or rat IgM antibody clone 101-producing hybridoma culture supernatant, in which antibody concentration had been adjusted to 80 μg/mL, 20 μg/mL or 5 μg/mL, at 50 μL/well. Here, n number in each culture condition was 3, and wells containing medium only were prepared as controls. […] After culturing for 96 hours, WST-8 (Dojindo Laboratories, Cell Counting Kit-8) was added at 10 μL/well followed by measuring absorbance at 450 nm with a microplate reader after culturing for 3 hours. The relative values of absorbance at each antibody concentration were plotted by plotting antibody concentration on the horizontal axis and assigning a value of 1 to the optical absorbance of the well containing medium only. […] Cytocidal effects were also observed for other colon cancer cells Difi, Carl, SW480 and Colo201.

[2] = test system: hematologic tumor K562 cells; test: Cytocidal effect of anti-TMEM-180 IgM antibody (WST-8), K562; format: cell-based; conditions: hybridoma culture supernatant adjusted to 80, 20 or 5 μg/mL, 96 hours, FIGS. 7 and 8
Protocol: as §2

Row | FACS shift, TMEM-180 knockout line versus parent line (TMEM-180; DLD-1 parent line vs TMEM-180 knockout line, FIG. 5) | specific recognition of TMEM-180 (TMEM-180; conclusion from DLD-1 parent vs knockout FACS) | Molecule | ADCC activity against wild type DLD-1 cells (wild type DLD-1 cells) | FACS reactivity to colon cancers (colon cancer cell lines) | FACS reactivity to brain tumors (brain tumor cell lines) | fluorescent immunostaining (pattern, intensity) (DLD-1 colon cancer cells) | staining of colon cancer section ([1]; DAB) | localisation of staining in colon cancer cells [1] | cytocidal effects against DLD-1 cells (colon cancer DLD-1 cells) | cytocidal effects against K562 cells [2]
1 |  |  | B1 | equal to or stronger than that of the 1361-5 antibody |  |  |  |  |  |  | 
2 |  |  | B2 | equal to or stronger than that of the 1361-5 antibody |  |  |  |  |  |  | 
3 | considerable left shift | specifically recognize TMEM-180 | B3 |  | positive for all six types of colon cancers | all four types of brain tumors | stained primarily in the membrane | stained specifically | Both the cell membrane and cytoplasm of the colon cancer cells were stained | demonstrated cytocidal effects | did not demonstrate cytocidal effects
